Assay results: patent EP4707393A1, “DOUBLE-STRANDED SIRNA, CONJUGATE THEREOF AND USE THEREOF” (CMS Research & Development Pte. Ltd., priority 2023, dated 2024)

Columns and labels:
[1] = Melting temperature (Tm) by UV absorption at 260 nm; format: physicochemical; conditions: phosphate buffer solution; average of at least two independent measurements
Procedure: The Tm value was determined by recording the change in UV absorption at 260 nm of DNA/RNA in phosphate buffer solution as the temperature increased.
Table 6 Melting temperature (Tm) test instrument parameters
The melting temperature (Tm) was calculated from the first derivative of the smoothed heating curve, and the reported value was the average of at least two independent measurements. Table 7 Melting temperatures (Tm) of conjugates of the present disclosure

PHH cells = experiment: Off-target assessment by RNA-sequencing in PHH cells; format: cell-based; conditions: vs PBS, 48 hours; for Downregulated differential genes / Total differential genes / Upregulated differential genes: DESeq2 padj ≤ 0.05 |log2FoldChange| ≥ 1.0
Procedure: • 1.1 Double-stranded siRNA conjugates • 1.2 PHH cells, purchased from Research Institute for Liver Diseases(Shanghai)Co. Ltd. • 1.3 Main reagents: InvitroGRO CP Medium (Cat. No.: BIOIVT-S03316), Fetal Bovine Serum (Cat. No.: ExCellBio-FSP500), Penicillin-Streptomycin (Cat. No.: Hyclone-SV30010), TRLzol Reagent (Cat. No.: Ambion-15596018).
The cryopreserved PHH was taken from the liquid nitrogen and thawed in a water bath at 37 °C. The fully thawed PHH was transferred to a 10% FBS InvitrogRO CP medium and blended well, and counted using a counter. The cell density was adjusted to 6 × 10^5 cells/mL.
siRNAs were diluted with RNase-free PBS to 10 times the final concentration (for example, diluted to 1000 nM if the test concentration is 100 nM). The diluted siRNAs were then added to a collagen-coated 12-well plate at 100 µL/well, with 1 concentration point, 3 replicated wells, and blank PBS as the negative control group. PHH cells at a density of 6 × 10^5 cells/mL were added to the collagen-coated 12-well plate at 900 µL/well. The final concentrations of the test compounds were […]. The cell plates were incubated in a 5% CO2, 37 ° C incubator for 48 hours. After 48 hours, the medium was removed, 600µL of Trizol was added per well to lyse the cells, and sent to Beijing Novogene Co., Ltd. for RNA-sequencing.
NEB Standard Library Preparation: Fragmented mRNAs were used as a template and random oligonucleotides as primers. The first strand of cDNA was synthesized in an M-MuLV reverse transcriptase system. The RNA strand was then degraded with RNaseH, and the second strand of cDNA was synthesized using a DNA polymerase I system with dNTPs as raw materials. The purified double-stranded cDNA underwent end repair, A-tailing, and adapter ligation for sequencing. The cDNA of approximately 250-300 bp was screened out by AMPure XP beads, PCR amplified, and the PCR product was purified again by AMPure XP beads to finally obtain the library. The kit used for library construction was NEBNext® Ultra ™ RNA Library Prep Kit for Illumina.
After the library construction, quantification was primarily performed using a Qubit2.0 Fluorometer, and the library was diluted to 1.5 ng/µL. The insert size of the library was then detected using an Agilent 2100 bioanalyzer. If the insert size meets expectations, the effective concentration of the library was accurately quantified by qRT-PCR (an effective concentration of the library higher than 2nM) to ensure the quality of the library.
After passing quality control of the library, different libraries were pooled according to the effective concentration and target output data volume for Illumina sequencing. The basic principle of sequencing is Sequencing by Synthesis. Four fluorescently labeled dNTPs, DNA polymerase, and adapter primers were added to the sequencing flow cell for amplification. As each sequencing cluster extends the complementary strand, the incorporation of each fluorescently labeled dNTP can release the corresponding fluorescence. The sequencer captures the fluorescence signal and converts the optical signals into sequencing peaks through computer software, thereby obtaining the sequence information of the test fragments.
Experimental results were obtained through software analysis
Differential gene analysis takes DESeq2 padj ≤ 0.05 |log2FoldChange| ≥ 1.0 as the threshold. Table 8. Differential gene statistics

LPA mRNA = experiment: In vivo efficacy in LPA-HDI mouse model (liver LPA mRNA); design: species or system BALB/c mouse; conditions: 3 mg/kg single subcutaneous injection, Day 14, relative to PBS blank group, 4 mice per group
Procedure: The knockdown effect of the test double-stranded siRNA conjugate on the target gene LPA upon entry into the mouse is evaluated by rapid high-pressure injection of the physiological saline containing recombinant plasmid pcDNA-LPA carrying the target gene via the tail vein.
pcDNA-LPA plasmid, BALB/c mouse, PBS (phosphate buffer), and conjugates of the present invention.
Six-week-old female BALB/c mice were ordered and acclimated/quarantined for three days upon arrival in the animal room.
On Day 0, the mice were randomly grouped based on body weight data. After grouping, all mice were given a single administration via subcutaneous injection, with a dose volume of 10 mL/kg. Mice in Group 1 received PBS; mice in the other groups received the conjugates (dissolved in PBS).
On Day 13 post-administration, all mice were injected with normal saline containing the pcDNA-LPA plasmid via the tail vein within 5 seconds. The injection volume (mL) = mouse body weight (g) × 8%. The amount of plasmid injected per mouse was 10 µg.
On Day 14 post-administration, all groups of mice were euthanized by CO2 inhalation, and 2 liver samples were collected from each mouse. Liver samples were treated overnight with RNAlater at 4 °C, then RNAlater was removed, and stored at -80 °C for detection of LPA gene expression levels.

Z42: siRNA conjugate: sense SEQ ID NO:49, ligand D01 at 3' end of sense strand, antisense SEQ ID NO:80 (sense CAGCCCCTTATTGTTATACGA; antisense NCGTATNACAATAAGGGGCNGTT; ligand D01 at sense 3' end; listed as RNA; modified_base 1: mod_base = OTHER; note = 2'-O-methylcytidine; modified_base 2: mod_base = OTHER; note = 2'-O-methyladenosine; modified_base 3: mod_base = OTHER; note = 2'-O-methylguanosine; modified_base 4..7: mod_base = OTHER; note = 2'-O-me; note = n is B33; note = 2'-deoxycytidine; modified_base 4: mod_base = OTHER; note = 2'-O-methyluridine; m)
Melting temperature Tm [1]: 67.75 °C | Maximum up-regulation folds (PHH cells): 1.9 | Downregulated differential genes (PHH cells): 0 | Total differential genes (PHH cells): 4 | Upregulated differential genes (PHH cells): 4 | % Downregulation of LPA mRNA (LPA mRNA): 78.0%

Z46: siRNA conjugate: sense SEQ ID NO:43, ligand D01 at 3' end of sense strand, antisense SEQ ID NO:66 (sense CAGCCCCTTATTGTTANACGA; antisense TCTCGTATNACAATAAGGGGCTG; ligand D01 at sense 3' end; listed as RNA; modified_base 1: mod_base = OTHER; note = 2'-O-methylcytidine; modified_base 2: mod_base = OTHER; note = 2'-O-methyladenosine; modified_base 3: mod_base = OTHER; note = 2'-O-methylguanosine; modified_base 4..7: mod_base = OTHER; note = 2'-O-me; note = 2'-O-methyluridine; modified_base 4: mod_base = OTHER; note = 2'-fluorocytidine; modified_base 5: mod_base = OTHER; note = 2'-O-methylg)
Melting temperature Tm [1]: 76.75 °C | Downregulated differential genes (PHH cells): 0 | Total differential genes (PHH cells): 0 | Upregulated differential genes (PHH cells): 0 | % Downregulation of LPA mRNA (LPA mRNA): 89.0%
